Laboratory results from patent US20110039770A1, “INHIBITORS OF PROTEIN KINASE C ISOFORMS AND USES THEREOF” (PHARMAGAP INC., priority 2005, published 2011).
Where a SMILES comes first, the peptide text is derived from it. [ ]: non-standard residue; d: D form.

What was measured:
Experiment in all cases: Competitive binding assay using cell extracts (Western blot)
Conditions in all cases: Cell extract; PRE 10X or 20X antibody concentration
PKC-βII = system: PKC-βII; parameters: species or system human; key: —: no detectable affinity; Low to very low affinity at 10X or 20X or both PRE concentrations in at least one cell line in the cell extract assay; Low affinity in purified isoform assay.; Moderate affinity at 10X or 20X or both PRE concentrations in at least one cell line in the cell extract assay.; High affinity at 10X or 20X or both PRE concentrations in at least one cell line in the cell extract assay; High affinity in purified isoform assay
Experimental: (§1) Binding efficiency and specificity of the peptides PRE 2, 3, 4, 5, 6, 7, 8, 9, 10, 11, 12 and 13 (see Table 4) was also tested using cytoplasmic extracts from different cell lines expressing appropriate PKC isoforms as described for Example 1. Briefly, the protein cytoplasmic extracts were separated by electrophoresis and transferred onto nitrocellulose membranes by standard Western blotting procedures. The bands on the Western blots were detected with matching primary antibodies and alkaline phosphatase conjugated secondary antibody. The bands were then scanned and the relative density measurements obtained.
(§2) This procedure to assess the binding characteristics of the PREs is based on competition binding of the PRE with the primary anti-isoform PKC specific antibodies. The lower the measured band density, the greater the binding of the PRE to the PKC isoform. The PREs were added at 10 and 20 times (10×, 20×) the primary antibody concentration, according to classical competition between antigenic peptide and primary antibody. The following cell lines (obtained from the ATCC) were used: H661—NCI human lung carcinoma NSCLC; MDAMB231—human highly invasive breast cancer cell line from pleural effusion; LS180—human colon adenocarcinoma; LnCAP—human prostate adenocarcinoma; CCD16Lu—human lung fibroblasts; Du145—human prostate carcinoma brain metastasis, and T24—human bladder carcinoma.
(§3) In these cases, the 20× band density figures relative to control and 10× values were reliable.

PKC-ι = biological target: T1, PKC-ι (Homo sapiens, UniProt P41743); parameters: key: —: no detectable affinity; Low to very low affinity at 10X or 20X or both PRE concentrations in at least one cell line in the cell extract assay; Low affinity in purified isoform assay.; Moderate affinity at 10X or 20X or both PRE concentrations in at least one cell line in the cell extract assay.; High affinity at 10X or 20X or both PRE concentrations in at least one cell line in the cell extract assay; High affinity in purified isoform assay
T1 construct: cytoplasmic extracts from different cell lines expressing appropriate PKC isoforms; endogenous in cells; host or cells: H661, CCD16Lu, LnCAP, MDAMB231, Du145, LS180
T1 sequence (P41743 1-596): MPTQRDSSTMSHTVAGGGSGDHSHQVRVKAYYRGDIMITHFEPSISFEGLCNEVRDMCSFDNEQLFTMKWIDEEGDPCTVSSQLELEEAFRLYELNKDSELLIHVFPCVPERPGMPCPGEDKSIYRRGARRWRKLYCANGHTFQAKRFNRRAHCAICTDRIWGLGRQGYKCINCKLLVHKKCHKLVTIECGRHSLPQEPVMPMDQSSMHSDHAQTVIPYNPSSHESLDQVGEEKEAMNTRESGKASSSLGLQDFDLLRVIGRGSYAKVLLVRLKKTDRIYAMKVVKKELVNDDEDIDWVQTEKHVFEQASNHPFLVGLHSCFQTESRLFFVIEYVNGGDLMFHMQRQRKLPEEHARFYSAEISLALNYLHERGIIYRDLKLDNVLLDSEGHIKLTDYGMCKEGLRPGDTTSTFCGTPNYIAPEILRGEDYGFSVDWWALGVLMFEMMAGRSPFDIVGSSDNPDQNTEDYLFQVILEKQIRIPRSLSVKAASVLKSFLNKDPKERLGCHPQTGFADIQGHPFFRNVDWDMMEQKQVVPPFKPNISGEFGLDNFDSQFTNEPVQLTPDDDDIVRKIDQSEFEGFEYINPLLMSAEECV
Experimental: as §1, §2, §3

PKC-ζ = biological target: T2, PKC-ζ (Homo sapiens, UniProt Q05513); parameters: cytoplasmic extracts from different cell lines expressing appropriate PKC isoforms; endogenous in cells; host or cells: H661, CCD16Lu, LnCAP, MDAMB231, Du145; key: —: no detectable affinity; Low to very low affinity at 10X or 20X or both PRE concentrations in at least one cell line in the cell extract assay; Low affinity in purified isoform assay.; Moderate affinity at 10X or 20X or both PRE concentrations in at least one cell line in the cell extract assay.; High affinity at 10X or 20X or both PRE concentrations in at least one cell line in the cell extract assay; High affinity in purified isoform assay
T2 sequence (Q05513 1-592): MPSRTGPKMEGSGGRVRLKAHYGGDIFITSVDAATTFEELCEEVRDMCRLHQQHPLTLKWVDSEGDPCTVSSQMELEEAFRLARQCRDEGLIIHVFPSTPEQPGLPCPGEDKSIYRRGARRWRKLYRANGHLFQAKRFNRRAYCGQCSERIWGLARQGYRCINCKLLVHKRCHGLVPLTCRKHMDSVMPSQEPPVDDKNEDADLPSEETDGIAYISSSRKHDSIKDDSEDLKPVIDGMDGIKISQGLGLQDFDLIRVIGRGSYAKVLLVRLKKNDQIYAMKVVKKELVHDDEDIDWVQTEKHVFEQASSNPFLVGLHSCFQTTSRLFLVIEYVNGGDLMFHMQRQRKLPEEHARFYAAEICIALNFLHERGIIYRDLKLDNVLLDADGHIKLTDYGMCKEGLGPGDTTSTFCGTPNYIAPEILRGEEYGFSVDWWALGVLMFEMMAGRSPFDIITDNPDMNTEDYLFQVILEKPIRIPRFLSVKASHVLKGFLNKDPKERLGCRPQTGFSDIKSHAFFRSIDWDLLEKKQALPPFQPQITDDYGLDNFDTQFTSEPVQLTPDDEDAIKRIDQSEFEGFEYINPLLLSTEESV
Experimental: as §1, §2, §3

| Compound | Affinity for PKC isoform βII (PKC-βII) | Affinity for PKC isoform ι (PKC-ι) | Affinity for PKC isoform ζ (PKC-ζ) |
| --- | --- | --- | --- |
| CC[C@H](C)[C@H](NC(=O)[C@H](CO)NC(=O)[C@@H](NC(=O)CNC(=O)[C@@H](NC(=O)[C@H](CC(C)C)NC(=O)[C@H](CC(N)=O)NC(=O)[C@H](CCC(N)=O)NC(=O)[C@H](C)NC(=O)[C@H](CC(=O)O)NC(=O)CNC(=O)CNC(=O)[C@H](CCCCN)NC(=O)[C@@H](NC(=O)[C@H](CCC(=O)O)NC(=O)[C@H](CCC(N)=O)NC(=O)[C@@H](NC(=O)CNC(=O)[C@H](CCCCN)NC(=O)[C@H](C)NC(C)=O)[C@@H](C)CC)C(C)C)[C@@H](C)CC)[C@@H](C)CC)C(N)=O [PRE 3] (Ac-AKGIQEVKGGDAQNLIGISI-NH2) | L | L | — |
| CC[C@H](C)[C@H](NC(=O)[C@H](CO)NC(=O)[C@@H](NC(=O)CNC(=O)[C@@H](NC(=O)[C@H](CC(C)C)NC(=O)[C@H](CC(N)=O)NC(=O)[C@H](CCC(N)=O)NC(=O)[C@H](C)NC(=O)[C@H](CC(=O)O)NC(=O)[C@H](CCCCN)NC(C)=O)[C@@H](C)CC)[C@@H](C)CC)C(N)=O [PRE 4, Ac-KDAQNLIGISI-NH2] (Ac-KDAQNLIGISI-NH2) | L | M/L | — |
| CC[C@H](C)[C@H](NC(=O)[C@H](CO)NC(=O)[C@@H](NC(=O)CNC(=O)[C@@H](NC(=O)[C@H](CC(C)C)NC(=O)[C@H](CC(N)=O)NC(=O)[C@H](CCC(N)=O)NC(=O)[C@H](C)NC(=O)[C@H](CC(=O)O)NC(=O)[C@H](CCCCN)NC(=O)CNC(=O)CNC(=O)[C@H](CCCCN)NC(=O)[C@@H](NC(=O)[C@H](CCC(=O)O)NC(=O)[C@H](CCC(N)=O)NC(=O)[C@@H](NC(=O)CNC(=O)[C@H](CCCCN)NC(=O)[C@H](C)NC(C)=O)[C@@H](C)CC)C(C)C)[C@@H](C)CC)[C@@H](C)CC)C(N)=O [PRE 5] (Ac-AKGIQEVKGGKDAQNLIGISI-NH2) | H |  | L/H |
| Ac-ISIGILNQADK-NH2 [PRE 10] | — |  | M/L |
| Ac-ISIGILQNADK-NH2 (not fully specified; printed as Ac-ISIGILQNADK-NH2) [PRE 7] |  | — | — |
| Ac-KDANQLIGISI-NH2 [PRE 6] |  | — | — |
| Ac-KDAQNLI-NH2 [PRE 12] | L | — | M/H |
| Ac-RDAQNLI-NH2 [PRE 13] |  | — | — |
| Ac-RDAQNLIGISI-NH2 [PRE 11] |  |  | — |
| Ac-isigilqnadk-NH2 (Ac-[dI][dS][dI]G[dI][dL][dQ][dN][dA][dD][dK]-NH2; SMILES CC[C@@H](C)[C@@H](NC(C)=O)C(=O)N[C@H](CO)C(=O)N[C@@H](C(=O)NCC(=O)N[C@@H](C(=O)N[C@H](CC(C)C)C(=O)N[C@H](CCC(N)=O)C(=O)N[C@H](CC(N)=O)C(=O)N[C@H](C)C(=O)N[C@H](CC(=O)O)C(=O)N[C@H](CCCCN)C(N)=O)[C@H](C)CC)[C@H](C)CC) [PRE 9] | — |  | M/L |
| ILEDKGGDAQNLIGISI [PRE 8] | H |  |  |
| RRKKGGKDFVVKR [PRE 1] |  | — | L |
